In this experiment the target is T1, c-Met-Fc (#358-MT/CF, R&D Systems) (UniProt P08581 25-932).
T1 construct: Bought reagent; also called 항원(c-Met); not shown: Fc part of the bought fusion
Description: SPR, Biacore T100; antibody captured on human Fab binder on a CM5 chip, c-Met-Fc injected at various concentrations. In general terms: In SPR one partner is held on a chip, and binding of the other changes the refractive index at the surface.

What is called Kd is the concentration at which binding is half-saturated. A high value points to lower affinity.

T1 sequence (P08581 25-932 limits assumed): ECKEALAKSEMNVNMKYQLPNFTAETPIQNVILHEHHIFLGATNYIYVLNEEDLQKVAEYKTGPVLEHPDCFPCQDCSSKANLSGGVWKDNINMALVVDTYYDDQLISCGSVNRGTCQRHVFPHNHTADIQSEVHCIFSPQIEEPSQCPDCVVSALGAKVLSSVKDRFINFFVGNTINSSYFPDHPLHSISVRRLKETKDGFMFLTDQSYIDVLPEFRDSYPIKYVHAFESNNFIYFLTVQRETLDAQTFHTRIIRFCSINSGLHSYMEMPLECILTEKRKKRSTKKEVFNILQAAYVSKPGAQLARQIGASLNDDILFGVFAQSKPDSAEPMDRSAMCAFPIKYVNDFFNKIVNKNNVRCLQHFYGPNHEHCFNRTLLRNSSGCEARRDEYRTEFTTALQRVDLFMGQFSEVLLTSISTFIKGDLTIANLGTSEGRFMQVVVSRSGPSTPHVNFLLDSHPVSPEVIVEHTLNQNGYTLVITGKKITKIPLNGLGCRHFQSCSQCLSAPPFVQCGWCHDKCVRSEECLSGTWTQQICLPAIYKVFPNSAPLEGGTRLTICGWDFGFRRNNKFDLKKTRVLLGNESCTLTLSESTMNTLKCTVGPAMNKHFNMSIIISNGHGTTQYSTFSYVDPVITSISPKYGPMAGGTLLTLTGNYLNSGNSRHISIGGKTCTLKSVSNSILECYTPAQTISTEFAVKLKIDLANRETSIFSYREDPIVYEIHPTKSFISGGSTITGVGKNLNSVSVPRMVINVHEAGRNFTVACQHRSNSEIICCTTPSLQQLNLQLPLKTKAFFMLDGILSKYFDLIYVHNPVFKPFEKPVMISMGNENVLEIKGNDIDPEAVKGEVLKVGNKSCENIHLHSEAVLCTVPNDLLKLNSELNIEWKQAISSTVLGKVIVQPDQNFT

B1: 항 c-Met 항체 (L3-1Y/IgG2), GSKO301 세포 생산 (antibody, V domains shown)
VH: EVQLVESGGGLVQPGGSLRLSCAASGFTFTDYYMSWVRQAPGKGLEWLGFIRNKANGYTTEYSASVKGRFTISRDNSKNTLYLQMNSLRAEDTAVYYCARDNWFAYWGQGTLVTVSS
VL: DIQMTQSPSSLSASVGDRVTITCKSSQSLLASGNQNNYLAWYQQKPGKAPKMLIIWASTRVSGVPSRFSGSGSGTDFTLTISSLQPEDFATYYCQQSYSRPYTFGQGTKVEIKR
notes: Produced in GS-KO CHO cells that express the antibody only (GSKO301); also called STD (12A37); GSKO301 생산 항체
B1: binding was put at a Kd of 0.057 nM. In other words, the picomolar range.

B2: 항 c-Met 항체 (L3-1Y/IgG2), GSKO301 GOT1 세포 생산 (antibody, V domains shown)
VH: B1 VH
VL: B1 VL
notes: Produced in GS-KO CHO cells that express the antibody and overexpress GOT1 (GSKO301 GOT1); also called GSKO301 GOT1 생산 항체; anti-c-Met antibody L3-1Y/IgG2
With B2, the affinity, expressed as Kd, was 0.076 nM.

The record behind these values is KR20160085666A (dated 2016).
